B1: recombinant sdAbE2-2 (VHH)
VHH: DVQLVESGGGLVQAGGSLRLSCTASGFTFDDYAMAWFRQPPGKEREGVSCISSSGGSTWYADSVKGRFTVSRDNAKNTLYLQMNSLKPEDTAMYYCAADWGRLCVVRGPRNEYKYSGQGTQVTVSS
B2: recombinant sdAbE2-1 (VHH)
VHH: QVQLLESGGGLVQPGGSLRLSCAASGYSFIDKTMAWVRQAPGKGLEWVSAIRMHNGSTYYADSVKGRFTISRDNSKNTLYLQMNSLRAEDTAVYYCARLSRRIQAKDKAKLKYWGQGTLVTVSS

Experiments:
[1] = biological target: truncated E2 protein of CSFV C-strain with glutathione S-transferase tag (grE2) (classical swine fever virus, C-strain); assay: SPR
[2] = biological target: truncated E2 protein of CSFV C-strain with glutathione S-transferase tag (grE2) (classical swine fever virus, C-strain); assay: ELISA

| Binder | Kd [1] | koff [1] | kon [1] | OD450nm value [2] |
| --- | --- | --- | --- | --- |
| B1 | 13.5 nM | 0.00859 s⁻¹ | 635000 M⁻¹ s⁻¹ | 0.743 |
| B2 | 334 nM | 0.00791 s⁻¹ | 23700 M⁻¹ s⁻¹ | 0.765 |
